Source: the Human Domainome abundance scans (Beltran et al. 2025)
± gives the uncertainty stated by the source.

B1: Pyruvate dehydrogenase protein X component, mitochondrial, residues 181 to 227; numbered along this chain, O00330 (parent)
chain: RFRLSPAARNILEKHSLDASQGTATGPRGIFTKEDALKLVQLKQTGK

Variants of: B1
Assay: abundance fitness (aPCA) (normalised: wild type 0, dead -1); higher = more abundant; growth selection in yeast, the domain comes from the species named
Details: Homo sapiens

Row | Variant | abundance fitness
1 | S20T | -0.109 ± 0.051
2 | S20Y | -0.932 ± 0.18
3 | S20W | -0.788 ± 0.075
4 | S20D | 0.087 ± 0.082
5 | S20I | -0.655 ± 0.17
6 | S20K | -0.108 ± 0.046
7 | S20M | -0.18 ± 0.075
8 | S20L | -0.345 ± 0.049
9 | S20A | -0.056 ± 0.045
10 | S20Q | -0.242 ± 0.067
11 | S20P | -0.257 ± 0.061
12 | S20C | -0.305 ± 0.094
13 | S20E | 0.034 ± 0.052
14 | S20F | -0.545 ± 0.068
15 | S20R | -0.284 ± 0.047
16 | S20G | -0.192 ± 0.053
17 | S20V | -0.369 ± 0.043
18 | A19Y | -0.236 ± 0.15
19 | A19D | -0.355 ± 0.12
20 | A19P | 0.249 ± 0.06
21 | A19K | -0.602 ± 0.058
22 | A19G | -0.136 ± 0.054
23 | A19W | -0.362 ± 0.044
24 | A19C | -0.186 ± 0.074

Row | Variant | abundance fitness
25 | A19S | -0.242 ± 0.066
26 | A19Q | -0.343 ± 0.07
27 | A19I | -0.295 ± 0.16
28 | A19H | -0.323 ± 0.12
29 | A19M | -0.074 ± 0.049
30 | A19V | -0.227 ± 0.053
31 | A19F | -0.59 ± 0.14
32 | A19L | -0.412 ± 0.053
33 | A19R | -0.362 ± 0.058
34 | A19T | -0.379 ± 0.048
35 | T23D | -0.058 ± 0.079
36 | T23W | -0.424 ± 0.073
37 | T23S | -0.138 ± 0.044
38 | T23H | -0.326 ± 0.087
39 | T23C | -0.234 ± 0.056
40 | T23P | -0.442 ± 0.064
41 | T23Q | -0.24 ± 0.087
42 | T23R | -0.237 ± 0.045
43 | T23K | -0.062 ± 0.075
44 | T23E | 0.067 ± 0.055
45 | T23G | -0.326 ± 0.045
46 | T23L | -0.258 ± 0.06
47 | T23V | 0.006 ± 0.058
48 | T23N | -0.195 ± 0.066

Row | Variant | abundance fitness
49 | T23F | -0.36 ± 0.072
50 | T23M | -0.231 ± 0.054
51 | T23I | -0.074 ± 0.089
52 | K14Y | -0.3 ± 0.1
53 | K14W | -0.474 ± 0.064
54 | K14H | -0.164 ± 0.079
55 | K14I | -0.165 ± 0.09
56 | K14G | -0.142 ± 0.044
57 | K14A | 0.008 ± 0.064
58 | K14E | 0.19 ± 0.067
59 | K14M | -0.149 ± 0.094
60 | K14Q | 0 ± 0.075
61 | K14P | -0.055 ± 0.081
62 | K14N | -0.05 ± 0.073
63 | K14R | -0.293 ± 0.053
64 | K14T | 0.049 ± 0.05
65 | K14F | -0.146 ± 0.11
66 | K14S | -0.279 ± 0.054
67 | K14C | -0.306 ± 0.056
68 | K14D | -0.172 ± 0.058
69 | A7P | -0.697 ± 0.082
70 | A7K | -0.187 ± 0.046
71 | A7N | -0.432 ± 0.072
72 | A7G | 0.06 ± 0.049

Row | Variant | abundance fitness
73 | A7T | 0.01 ± 0.073
74 | A7R | -0.222 ± 0.047
75 | A7D | -0.211 ± 0.11
76 | A7M | -0.396 ± 0.095
77 | A7W | -0.98 ± 0.13
78 | A7I | -0.263 ± 0.099
79 | A7Q | 0.062 ± 0.061
80 | A7H | -0.605 ± 0.15
81 | A7S | -0.078 ± 0.052
82 | I11G | -0.409 ± 0.055
83 | I11P | -0.383 ± 0.15
84 | I11S | -0.436 ± 0.057
85 | I11K | -0.419 ± 0.087
86 | I11H | -0.369 ± 0.11
87 | I11D | -0.175 ± 0.091
88 | I11R | -0.397 ± 0.054
89 | I11E | -0.528 ± 0.075
90 | I11L | -0.316 ± 0.066
91 | I11V | -0.314 ± 0.053
92 | I11N | -0.194 ± 0.1
93 | I11C | -0.485 ± 0.07
94 | I11T | -0.532 ± 0.08
95 | I11M | -0.52 ± 0.06
96 | I11A | -0.356 ± 0.057

Row | Variant | abundance fitness
97 | I11F | -0.424 ± 0.14
98 | I11Q | -0.469 ± 0.095
99 | I11W | -0.786 ± 0.092
100 | L12I | -0.121 ± 0.062
101 | L12A | -0.317 ± 0.048
102 | L12H | -0.504 ± 0.11
103 | L12C | -0.019 ± 0.067
104 | L12R | -0.422 ± 0.051
105 | L12S | -0.361 ± 0.053
106 | L12W | -0.765 ± 0.11
107 | L12D | 0.018 ± 0.076
108 | L12Q | -0.199 ± 0.061
109 | L12N | -0.319 ± 0.086
110 | L12F | -0.584 ± 0.13
111 | L12M | -0.263 ± 0.074
112 | L12Y | -1.16 ± 0.3
113 | L12T | -0.181 ± 0.057
114 | L12K | -0.481 ± 0.11
115 | L12P | -0.073 ± 0.062
116 | L12G | -0.332 ± 0.048
117 | H15I | -0.906 ± 0.16
118 | H15S | -0.517 ± 0.075
119 | H15M | -0.1 ± 0.082
120 | H15D | -0.283 ± 0.06

Row | Variant | abundance fitness
121 | H15A | -0.276 ± 0.069
122 | H15R | -0.985 ± 0.077
123 | H15L | -0.813 ± 0.078
124 | H15Y | -0.176 ± 0.09
125 | H15V | -0.506 ± 0.053
126 | H15F | -0.294 ± 0.077
127 | H15P | -0.575 ± 0.072
128 | H15Q | -0.341 ± 0.05
129 | H15W | -0.191 ± 0.082
130 | H15G | -0.255 ± 0.052
131 | H15T | -0.361 ± 0.075
132 | H15K | -0.42 ± 0.085
133 | H15E | -0.138 ± 0.064
134 | H15N | 0.019 ± 0.078
135 | N10L | 0.064 ± 0.048
136 | N10T | 0.002 ± 0.048
137 | N10M | -0.052 ± 0.087
138 | N10F | 0.106 ± 0.088
139 | N10D | 0.192 ± 0.085
140 | N10R | 0.024 ± 0.047
141 | N10S | 0.003 ± 0.054
142 | N10Q | 0.106 ± 0.051
143 | N10G | -0.058 ± 0.046
144 | N10Y | -0.192 ± 0.12

Row | Variant | abundance fitness
145 | N10V | -0.001 ± 0.058
146 | N10C | -0.13 ± 0.055
147 | N10W | -0.272 ± 0.048
148 | N10A | 0.063 ± 0.048
149 | N10P | -0.163 ± 0.069
150 | N10H | -0.086 ± 0.058
151 | N10E | 0.439 ± 0.074
152 | N10K | -0.014 ± 0.079
153 | P6N | -0.053 ± 0.076
154 | P6I | -0.113 ± 0.046
155 | P6K | 0.07 ± 0.077
156 | P6T | -0.093 ± 0.073
157 | P6F | -0.35 ± 0.08
158 | P6L | -0.2 ± 0.046
159 | P6A | 0.027 ± 0.058
160 | P6H | -0.367 ± 0.087
161 | P6D | -0.091 ± 0.065
162 | P6Q | -0.08 ± 0.091
163 | P6R | 0.038 ± 0.046
164 | P6W | -0.261 ± 0.062
165 | P6G | -0.61 ± 0.048
166 | P6Y | -0.174 ± 0.067
167 | P6M | -0.23 ± 0.094
